Where no end group is shown, it is not given here. Cy5.5 = Cy5.5 fluorophore
B1: FITC labeled SHRNRPRNTQPS (SHR*) peptide (peptide)
peptide: SHRNRPRNTQPS
modifications: also: FITC label, site not given here
notes: also called SHR*-FITC; FITC-labeled peptide

What was measured:
[1] = target: T1, Epidermal growth factor receptor (EGFR), human, on cells (human, UniProt P00533 25-1210); experiment: apparent dissociation constant, flow cytometry on HT29 cells, 0-200 nM peptide, 4° C., R^2=0.95
T1 construct: whole, on cells; The expression level differs between cell lines (HT29 > SW480 > SW620); It is reduced in HT29 cells transfected with siEGFR
Description: We measured the apparent dissociation constant of the peptide to HT29 cells as an assessment of binding affinity. QRH*-Cy5.5 was serially diluted in PBS at concentrations of 0, 10, 25, 50, 75, 100, 125, 150 and 200 nM. HT29 cells (˜10⁵) were incubated with QRH*-Cy5.5 at 4° C. for 1 hour, washed with cold PBS, and the mean fluorescence intensities were measured on flow cytometry. The equilibrium dissociation constant kd=1/kₐ was calculated by performing a least squares fit of the data to the non-linear equation I=(I₀+Iₘₐₓkₐ[X])/([…]). I₀ and Iₘₐₓ are the initial and maximum fluorescence intensities, corresponding to no peptide and at saturation, respectively, and [X] represents the concentration of the bound peptide [Thomas et al., Clin Exp Metastasis, 26:105-119 (2009)]. Origin 6.1 data analysis software (OriginLab Corp) was used to calculate kd.

[2] = target: T1, Epidermal growth factor receptor …; experiment: confocal fluorescence microscopy, FITC channel, OE21 cells

Row | Binder | Kd [1] [µM] | fold fluorescence intensity against the GGG* control peptide [2] [fold]
1 | QRHKPREGGGSK(Cy5.5)-NH2 (also called EGFR peptide) [QRH*-Cy5.5 (QRHKPRE peptide with GGGSK linker and Cy5.5 fluorophore)] | 0.05 | –
2 | B1 | – | > 5

Reference: US20200102349A1 (REGENTS OF THE UNIVERSITY OF MICHIGAN, published 2020)
